# B1: Drosophila melanogaster PRL (wild-type) [D. melanogaster] / Drosophila melanogaster CNNM CBS-pair domain, GST-tagged [D. melanogaster] (parent)
# chain 1: MSITMRQKDLRPAPALIEYKGMKFLITDRPSDITINHYIMELKKNNVNTVVRVCEPSYNTDELETQGITVKDLAFEDGTFPPQQVVDEWFEVLKDKYQQNPEACVAVHCVAGLGRAPVLVALALIELGLKYEAAVEMIRDKRRGAINAKQLSFLEKYKPKARLKHKNGHKNSCSVQ
# chain 2: VNIISGALELRKKTVADVMTHINDAFMLSLDALLDFETVSEIMNSGYSRIPVYDGDRKNIVTLLYIKDLAFVDTDDNTPLKTLCEFYQNPVHFVFEDYTLDIMFNQFKEGTIGHIAFVHRVNNEGDGDPFYETVGLVTLEDVIEELIQAEIVDE
# Variants of: B1
# Experiment: ITC
# Conditions: with Drosophila melanogaster CNNM CBS-pair domain, 16 µM CNNM titrated with 160 µM PRL
row,Variant,Kd [µM]
1,chain 1 R143E,7.5
2,chain 1 C109D,0.6

# From PMC10040874
